How the values were obtained:
[1] = tested on: anti-FITC CAR (E2 scFv, CD8a hinge/TM, 4-1BB, CD3zeta) on CAR-J Jurkat or CAR-T cells (synthetic construct); test: flow cytometry, CAR-T cells; details: via FITC; Cells 1e6/mL in DPBS, 1% FBS, 5 mM MgCl2, 4 C, 30 min; flow cytometry (pH 6.5 or 7.4 for i-motif; 1 mM ATP where stated)
[2] = tested on: anti-FITC CAR (E2 scFv, CD8a hinge/TM, 4-1BB, CD3zeta) on CAR-J Jurkat or CAR-T cells (synthetic construct); test: flow cytometry, CAR-J cells; details: via FITC; Cells 1e6/mL in DPBS, 1% FBS, 5 mM MgCl2, 4 C, 30 min; flow cytometry (pH 6.5 or 7.4 for i-motif; 1 mM ATP where stated)

Sequence	binding signal (fold vs ssDNA) [1]	Kd [2] [nM]
ACATTCCTAAGTCTGAAACATTACAGCTTGCTACACGAGAAGAGCCGCCATAGTA / TTTATCACCAGGCAGTTGACAGTGTAGCAAGCTGTAATAGATGCGAGGGTCCAATAC / TTTCAACTGCCTGGTGATAAAACGACACTACGTGGGAATCTACTATGGCGGCTCTTC / TTTTCAGACTTAGGAATGTGCTTCCCACGTAGTGTCGTTTGTATTGGACCCTCGCAT [FITC-TDN-Cy5]	3	
TTTTTTTTTTTTTTTTTTTTTTTTTTTTTTTTTTTTTTTT [FITC-DNA-Cy5]		26.4

Source: paper PMC11046454
